Assay results: US20190367620A1 (Merck KGaA, published 2019)
Where a chain is given by its changes, count along the chain named.

T1: human FGFR1b-IIIb extracellular domain with a HIS tag (human)
T1 construct: also called huFGFR1b-IIIb; hFGFR1b-IIIb
T1 chain: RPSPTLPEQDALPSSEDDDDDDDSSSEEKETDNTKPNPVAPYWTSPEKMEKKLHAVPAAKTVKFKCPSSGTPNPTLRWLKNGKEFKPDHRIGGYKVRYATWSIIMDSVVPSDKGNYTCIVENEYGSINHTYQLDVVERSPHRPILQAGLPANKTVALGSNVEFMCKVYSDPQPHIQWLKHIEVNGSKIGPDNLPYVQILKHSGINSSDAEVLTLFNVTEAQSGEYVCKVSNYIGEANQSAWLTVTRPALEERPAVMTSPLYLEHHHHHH

T2: human FGFR1b-IIIc extracellular domain with a HIS tag (human, UniProt P11362 22-376)
T2 construct: also called huFGFR1b-IIIc; hFGFR1b-IIIc
T2 sequence: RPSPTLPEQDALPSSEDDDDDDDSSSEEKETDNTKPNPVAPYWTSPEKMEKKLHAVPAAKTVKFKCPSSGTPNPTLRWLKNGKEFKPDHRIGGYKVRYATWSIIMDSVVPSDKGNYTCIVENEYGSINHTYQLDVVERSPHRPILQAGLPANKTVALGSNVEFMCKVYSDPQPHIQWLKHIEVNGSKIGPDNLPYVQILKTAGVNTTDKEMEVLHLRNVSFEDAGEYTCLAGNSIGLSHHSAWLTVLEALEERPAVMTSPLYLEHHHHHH

B1: monovalent SEEDbody #A08 (antibody)
heavy: EVQLQESGPGLVKPSGTLSLTCAVSGGSISSNNWWSWVRQPPGKGLEWIGEIYHSGSTSYNPSLKSRVTISVDKSKNQFSLKLSSVTAADTAVYYCARGTDWFDPWGQGTLVTVSSASTKGPSVFPLAPSSKSTSGGTAALGCLVKDYFPEPVTVSWNSGALTSGVHTFPAVLQSSGLYSLSSVVTVPSSSLGTQTYICNVNHKPSNTKVDKRVEPKSCDKTHTCPPCPAPELLGGPSVFLFPPKPKDTLMISRTPEVTCVVVDVSHEDPEVKFNWYVDGVEVHNAKTKPREEQYNSTYRVVSVLTVLHQDWLNGKEYKCKVSNKALPAPIEKTISKAKGQPFRPEVHLLPPSREEMTKNQVSLTCLARGFYPKDIAVEWESNGQPENNYKTTPSRQEPSQGTTTFAVTSKLTVDKSRWQQGNVFSCSVMHEALHNHYTQKTISLSPG
chain: EPKSSDKTHTCPPCPAPELLGGPSVFLFPPKPKDTLMISRTPEVTCVVVDVSHEDPEVKFNWYVDGVEVHNAKTKPREEQYNSTYRVVSVLTVLHQDWLNGKEYKCKVSNKALPAPIEKTISKAKGQPREPQVYTLPPPSEELALNELVTLTCLVKGFYPSDIAVEWLQGSQELPREKYLTWAPVLDSDGSFFLYSILRVAAEDWKKGDTFSCSVMHEALHNHYTQKSLDRSPG
light: SYVLTQPPSVSVAPGQTARITCGGNNIGSESVHWYQQKPGQAPVLVVYDDSDRPSGIPERFSGSNSGNTATLTISRVEAGDEADYYCQVWDSTSDHRVFGGGTKLTVLGQPKAAPSVTLFPPSSEELQANKATLVCLISDFYPGAVTVAWKADSSPVKAGVETTTPSKQSNNKYAASSYLSLTPEQWKSHKSYSCQVTHEGSTVEKTVAPTECS
notes: One-armed SEEDbody: full SEED(AG) heavy chain, partial hinge-CH2-CH3 SEED(GA) chain, lambda light chain; produced in CHO-LF cells (afucosylated); also called anti-FGFR1 SEEDbody; #A08 SEEDbody
B2: A05 SEEDbody (monovalent) (antibody, V domains shown)
VH: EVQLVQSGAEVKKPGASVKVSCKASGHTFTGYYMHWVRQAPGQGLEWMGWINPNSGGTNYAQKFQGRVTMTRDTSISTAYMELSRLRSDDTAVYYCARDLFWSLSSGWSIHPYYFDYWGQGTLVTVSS
VL: QSALTQPASVSGSPGQSITISCTGTSSDVGSYNLVSWYQQHPGKAPKLMIYGGSKRPSGVPDRFSGSKSGNTASLTISGLQAEDEADYYCSSYTYSGDVFGTGTKVTVL
B3: #A02 SEEDbody (monovalent) (antibody)
heavy: B1 heavy with E1Q, G99A, P105L
chain: B1 chain
light: B1 light
notes: also called #A02-SEED(AG)
B4: #D01 SEEDbody (monovalent) (antibody)
heavy: B1 heavy with E1Q, G99A, P105H
chain: B1 chain
light: B1 light
notes: also called #D01-SEED(AG)
B5: #C01 SEEDbody (monovalent) (antibody)
heavy: B1 heavy with E1Q, G99A, P105A
chain: B1 chain
light: B1 light
notes: also called #C01-SEED(AG)
B6: SEEDbody #A07 (monovalent) (antibody)
heavy: B1 heavy with E1Q, F103Y
chain: B1 chain
light: B1 light
notes: also called #A07-SEED(AG)
B7: #B10 SEEDbody (monovalent) (antibody)
heavy: B1 heavy with E1Q, G99A, F103Y
chain: B1 chain
light: B1 light
notes: also called #B10-SEED(AG)
B8: #G04 SEEDbody (monovalent) (antibody)
heavy: B1 heavy with E1Q, F103Y, P105L
chain: B1 chain
light: B1 light
notes: also called #G04-SEED(AG)
B9: #D02 SEEDbody (monovalent) (antibody)
heavy: B1 heavy with E1Q, F103I, P105T
chain: B1 chain
light: B1 light
notes: also called #D02-SEED(AG)
B10: mAb #A02 IgG1 (antibody, V domains shown)
VH: QVQLQESGPGLVKPSGTLSLTCAVSGGSISSNNWWSWVRQPPGKGLEWIGEIYHSGSTSYNPSLKSRVTISVDKSKNQFSLKLSSVTAADTAVYYCARATDWFDLWGQGTLVTVSS
VL: SYVLTQPPSVSVAPGQTARITCGGNNIGSESVHWYQQKPGQAPVLVVYDDSDRPSGIPERFSGSNSGNTATLTISRVEAGDEADYYCQVWDSTSDHRVFGGGTKLTVL
notes: constant regions not tied
B11: #A07 IgG1 (antibody, V domains shown)
VH: B10 VH with A99G, F103Y, L105P
VL: SYVLTQPPSVSVAPGQTARITCGGNNIGSESVHWYQQKPGQAPVLVVYDDSDRPSGIPERFSGSNSGNTATLTISRVEAGDEADYYCQVWDSTSDHRVFGGGTKLTVLG
notes: heavy constant region not tied
B12: mAb #D01 IgG1 (antibody, V domains shown)
VH: B10 VH with L105H
VL: B11 VL
notes: as for B11
B13: #B10 IgG1 (antibody, V domains shown)
VH: B10 VH with F103Y, L105P
VL: B11 VL
notes: as for B11
B14: mAb #C01 IgG1 (antibody, V domains shown)
VH: B10 VH with L105A
VL: B10 VL
notes: constant regions not tied

Target: FGFR1 on NCI-H520 cells (human, UniProt P11362 22-822)
Assay: cell-based or functional assay

Sequence of FGFR1 on NCI-H520 cells (P11362 22-822): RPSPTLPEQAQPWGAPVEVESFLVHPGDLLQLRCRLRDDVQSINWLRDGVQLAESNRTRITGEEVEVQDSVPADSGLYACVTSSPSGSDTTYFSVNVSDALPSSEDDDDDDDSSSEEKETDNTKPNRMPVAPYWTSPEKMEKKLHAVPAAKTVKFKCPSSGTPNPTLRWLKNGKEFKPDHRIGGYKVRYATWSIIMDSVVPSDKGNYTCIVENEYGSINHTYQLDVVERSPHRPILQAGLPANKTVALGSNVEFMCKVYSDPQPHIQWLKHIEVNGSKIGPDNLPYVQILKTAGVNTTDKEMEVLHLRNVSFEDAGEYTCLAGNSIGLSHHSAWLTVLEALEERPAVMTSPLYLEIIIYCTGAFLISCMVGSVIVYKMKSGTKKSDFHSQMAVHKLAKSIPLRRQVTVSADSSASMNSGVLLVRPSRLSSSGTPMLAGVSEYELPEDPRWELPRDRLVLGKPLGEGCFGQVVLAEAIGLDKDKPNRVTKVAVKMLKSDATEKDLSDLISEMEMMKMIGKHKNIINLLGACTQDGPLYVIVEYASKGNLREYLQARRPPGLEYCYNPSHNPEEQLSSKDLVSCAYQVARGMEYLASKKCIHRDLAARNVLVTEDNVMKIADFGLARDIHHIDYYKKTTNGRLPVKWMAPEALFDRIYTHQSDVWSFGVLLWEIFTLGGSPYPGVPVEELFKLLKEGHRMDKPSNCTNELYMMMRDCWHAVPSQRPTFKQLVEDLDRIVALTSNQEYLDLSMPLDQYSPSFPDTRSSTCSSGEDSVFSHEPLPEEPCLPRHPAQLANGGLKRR

IC50, pFGFR1 inhibition in NCI-H520 cells, FGF1, SEEDbody [M]	IC50, pFGFR1 inhibition in NCI-H520 cells, FGF2, SEEDbody [M]	IC50, pFGFR1 inhibition in NCI-H520 cells, non-stimulated, SEEDbody [M]	Binder
7e-08	6e-09	2e-08	B1
> 1e-06	4e-07	> 1e-06	B2

Target: T1, human FGFR1b-IIIb extracellular domain …
Assay: SPR (BIAcore), SEEDbody format; target IIIb by paragraph 74 and paragraph 125, the table's title says IIIc
Method: (§1) Binding affinities of anti-FGFR1 antibodies to FGFR1 were measured by Surface Plasmon Resonance (SPR) using a GE Healthcare BIAcore 4000 instrument as follows. Goat anti-human Fc antibody (Jackson ImmunoResearch Laboratories #109-005-098) was first immobilized on BIAcore carboxymethylated dextran CM5 chip using direct coupling to free amino groups following the procedure described by the manufacturer. Antibodies were then captured on the CM5 biosensor chip to achieve approximately 200 response units (RU). Binding measurements were performed using the running HBS-EP+ buffer. A 2-fold dilution series of His-tagged FGFR1 proteins were injected at a flow rate of 30 μl/min at 25° C. Association rates (kₒₙ, per mol/s) and dissociation rates (koff, per s) were calculated using a simple 1:1 Langmuir binding model (Biacore 4000 Evaluation Software). The equilibrium dissociation constant (KD, mol) was calculated as the ratio of koff/kₒₙ.
(§2) The affinities to human FGFR1b-IIIb for the affinity matured clones reformatted as IgG and monovalent SEEDbodies were measured by BIAcore (using a protocol similar to the one described in Example 1.8) and compared to those of mAb #08 (Table 5).

Kd [nM]	Binder
0.06	B3
0.05	B4
0.08	B1
0.04	B5
0.04	B6
0.02	B7

Target: T1, human FGFR1b-IIIb extracellular domain …
Assay: ELISA, EC50 from OD450 curves, monovalent SEEDbody format
Method: (§3) The binding selectivity of the antibodies were tested by ELISA against the different FGFR family members: FGFR1, FGFR2, FGFR3 and FGFR4. Briefly plates were coated overnight with the different His6-tagged FGFR proteins, after blocking with 1% Bovine Serum albumin, 1 or 0.1 μg/ml of anti-FGFR1 antibodies were incubated for 1 h at room temperature. After washing, the bound antibodies were incubated for 1 h at room temperature with a peroxidase affiniPure F(ab′)2 Fragment goat anti-human Fc (Jackson ImmunoResearch Laboratories #109-036-098) and detection was performed using the TMB HRP Substrate solution (BioFx Lab # TMBW-1000-01).
(§4) The antibody #A08 both as an IgG1 (bivalent) and as a SEEDbody (monovalent), was affinity matured using the yeast display technology described in (Rhiel et al. 2014) and performing light chain shuffling from immunized OmniRats and naïve human library followed by CDR-H3 parsimonious mutagenesis. Following several sorting rounds, yeast clones were picked, unique clones were reformatted as described in Examples 1.6 and 3.1. The binding affinities of the anti-FGFR1 molecules against human FGFR1b-IIIb) and human FGFR1b-IIIc) were measured by ELISA using a similar protocol as described in Example 1.9. The OD450 was plotted against the antibody concentration and GraphPad Prism software was used to calculate EC₅₀ values (see FIG. 10). […] The best results were obtained with mAb #A02 and #C01 showing an EC50 improvement in both IgG1 and SEEDbody formats.

binding result	Binder
binds	B8
binds	B9

Target: T2, human FGFR1b-IIIc extracellular domain …
Assay: as above
Method: as §3, §4

binding result	Binder
binds	B3
binds	B4
binds	B5
binds	B6
binds	B8
binds	B9
binds	B7

Target: T1, human FGFR1b-IIIb extracellular domain …
Assay: SPR (BIAcore), IgG1 format; target IIIb by paragraph 74 and paragraph 125, the table's title says IIIc
Method: as §1, §2

Kd [nM]	Binder
0.05	B10
0.06	B11
0.03	B12
0.02	B13
0.03	B14

Target: T2, human FGFR1b-IIIc extracellular domain …
Assay: ELISA, EC50 from OD450 curves, IgG1 format
Method: as §3
The antibody #A08 both as an IgG1 (bivalent) and as a SEEDbody (monovalent), was affinity matured using the yeast display technology described in (Rhiel et al. 2014) and performing light chain shuffling from immunized OmniRats and naïve human library followed by CDR-H3 parsimonious mutagenesis. Following several sorting rounds, yeast clones were picked, unique clones were reformatted as described in Examples 1.6 and 3.1. The binding affinities of the anti-FGFR1 molecules against human FGFR1b-IIIb) and human FGFR1b-IIIc) were measured by ELISA using a similar protocol as described in Example 1.9. The OD450 was plotted against the antibody concentration and GraphPad Prism software was used to calculate EC₅₀ values (see FIG. 10). […]

binding result	Binder
binds	B10
binds	B14
